Experimental data published in PMC8124189, “Detection of the First Epoxyalcohol Synthase/Allene Oxide Synthase (CYP74 Clan) in the Lancelet (Branchiostoma belcheri, Chordata)” (International Journal of Molecular Sciences, 2021).

Assays:
Assay in all cases: purified protein
Assay type in all cases: biochemical, Branchiostoma belcheri
Conditions in all cases: Na phosphate buffer (pH range 6.0-8.0 stated; optimum pH 7.0), 25 °C, substrate 5-150 μM
purified protein [1] = substrate: CC/C=C\C[C@@H](/C=C/C=C\CCCCCCCC(=O)O)OO
purified protein [2] = substrate: CCCCC/C=C\C=C\[C@H](CCCCCCCC(=O)O)OO
purified protein [3] = substrate: CCCCC[C@@H](/C=C/C=C\CCCCCCCC(=O)O)OO
purified protein [4] = substrate: CC/C=C\C/C=C\C=C\[C@H](CCCCCCCC(=O)O)OO

B1: CYP440A18 (BbEAS/AOS) (Branchiostoma belcheri) (protein)
chain: MGNAIGYLKWLGQGKQAFAPDRKEDFVETNIGFPCRVVTGNKAVQSVFDIDLFKKEEFFFGLIEIRKEFTEGVCPSVTSNGKIHEKNKALMMDVIAGAYEEIPTSTADAVLSNIATWGSTPTDFESKLMAVSAGIFLPTIFGRSTRFNPEDVNLYVKGATELRSDILAAVTREDLTETRRGMRSVLEKIKTSERYSQLIDLGRSHGLDEASTTGQLLFCVMFNAVGGTATNLVATFGRLDTISAEDRQELREEALAALRKHGGLTRAALEEMPKIESFVLEVLRTCPSPGVWSHIAARPTTVKYTTASGPKEVNIKEGERVYASPYWALRDPAVFDKPDDFVWRRFLGPEGEALREHHVTFHGRLTDSAAVNNHMCPGRDVALSVIKGSIAILNTFFGWELQERPFWTGTKVSRIGQPDNVVKVKSFWLQHPDDLKEIFPSHFEEIHDSLNSAVLQCP
notes: full-length, 458 aa; codon-adapted synthetic gene in pET-23a; C-terminal His tag; E. coli BL21(DE3)pLysS; IMAC purified
B1 gave a Km (purified protein [1]) of 17.6 µM, a kcat (purified protein [1]) of 432 s⁻¹ and a kcat/Km (purified protein [1]) of 2.45e+07 M⁻¹ s⁻¹. It also gave a Km (purified protein [2]) of 37.0 µM, a kcat (purified protein [2]) of 164 s⁻¹ and a kcat/Km (purified protein [2]) of 4.4e+06 M⁻¹ s⁻¹. For the same protein, the Km (purified protein [3]) was 18.6 µM, the kcat (purified protein [3]) was 174 s⁻¹ and the kcat/Km (purified protein [3]) was 9.4e+06 M⁻¹ s⁻¹. For the same protein, the Km (purified protein [4]) was 31.8 µM, the kcat (purified protein [4]) was 248 s⁻¹ and the kcat/Km (purified protein [4]) was 7.8e+06 M⁻¹ s⁻¹.
